Paper PMC9389042, “Atypical IκB Bcl3 enhances the generation of the NF-κB p52 homodimer” (Frontiers in Cell and Developmental Biology, 2022)

T1: Recombinant non-tagged human p52 (1-398) (human, UniProt Q00653 1-398)
T1 chain: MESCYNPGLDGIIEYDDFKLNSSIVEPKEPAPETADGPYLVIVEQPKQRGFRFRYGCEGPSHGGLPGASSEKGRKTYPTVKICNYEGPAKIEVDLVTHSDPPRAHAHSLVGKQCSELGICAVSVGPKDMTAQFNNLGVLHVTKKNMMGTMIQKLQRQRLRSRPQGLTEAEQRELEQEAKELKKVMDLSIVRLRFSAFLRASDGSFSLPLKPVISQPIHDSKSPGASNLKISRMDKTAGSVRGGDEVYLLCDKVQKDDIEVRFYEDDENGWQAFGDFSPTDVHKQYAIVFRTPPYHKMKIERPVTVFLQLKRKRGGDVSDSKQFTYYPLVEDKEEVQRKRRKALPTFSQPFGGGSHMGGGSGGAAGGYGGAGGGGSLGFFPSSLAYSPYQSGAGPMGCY

T2: Recombinant non-tagged human p50 (1-435) (human, UniProt P19838 1-435)
T2 chain: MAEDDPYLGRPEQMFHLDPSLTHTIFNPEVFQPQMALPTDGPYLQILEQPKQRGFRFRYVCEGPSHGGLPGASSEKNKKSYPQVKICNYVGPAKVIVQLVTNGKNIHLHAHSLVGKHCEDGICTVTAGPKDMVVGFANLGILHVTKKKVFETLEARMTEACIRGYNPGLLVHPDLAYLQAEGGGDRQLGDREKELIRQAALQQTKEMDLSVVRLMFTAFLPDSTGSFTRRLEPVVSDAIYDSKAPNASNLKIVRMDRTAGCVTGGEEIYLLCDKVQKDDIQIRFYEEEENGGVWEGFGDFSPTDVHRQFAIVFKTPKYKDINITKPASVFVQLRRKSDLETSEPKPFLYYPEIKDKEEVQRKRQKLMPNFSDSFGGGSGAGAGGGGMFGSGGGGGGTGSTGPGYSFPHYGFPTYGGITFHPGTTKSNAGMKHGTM

T3: p52 (1-341) fused to a BiFC fragment (human, UniProt Q00653 1-341)
T3 construct: NF-kappaB p52 (processed product of NF-kappaB2/p100), rel homology region, residues 1-341; Three constructs that differ only in the fluorescent-protein fragment are written as one molecule; The methods give limits for p52-VN and p52-CC only; also called p52-VN; p52-CC; not shown: BiFC fragment behind a (GGGGS)2 linker (Venus 1-172 in p52-VN; Cerulean 155-238 in p52-CC; N-terminal fragment of …)
T3 sequence (looked up): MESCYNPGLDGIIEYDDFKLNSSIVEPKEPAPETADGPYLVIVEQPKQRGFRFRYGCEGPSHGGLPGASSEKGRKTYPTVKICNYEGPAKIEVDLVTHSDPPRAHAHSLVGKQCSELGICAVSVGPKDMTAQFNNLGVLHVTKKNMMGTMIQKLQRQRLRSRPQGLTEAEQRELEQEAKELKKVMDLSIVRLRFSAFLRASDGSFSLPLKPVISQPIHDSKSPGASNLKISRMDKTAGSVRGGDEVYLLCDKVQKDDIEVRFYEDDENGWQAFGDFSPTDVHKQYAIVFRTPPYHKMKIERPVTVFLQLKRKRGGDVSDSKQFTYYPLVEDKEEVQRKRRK

B1: His-Bcl3(1-446) (natural protein)
chain: MDEGPVDLRTRPKAAGLPGAALPLRKRPLRAPSPEPAAPRGAAGLVVPLDPLRGGCDLPAVPGPPHGLARPEALYYPGALLPLYPTRAMGSPFPLVNLPTPLYPMMCPMEHPLSADIAMATRADEDGDTPLHIAVVQGNLPAVHRLVNLFQQGGRELDIYNNLRQTPLHLAVITTLPSVVRLLVTAGASPMALDRHGQTAAHLACEHRSPTCLRALLDSAAPGTLDLEARNYDGLTALHVAVNTECQETVQLLLERGADIDAVDIKSGRSPLIHAVENNSLSMVQLLLQHGANVNAQMYSGSSALHSASGRGLLPLVRTLVRSGADSSLKNCHNDTPLMVARSRRVIDILRGKATRPASTSQPDPSPDRSANTSPESSSRLSSNGLLSASPSSSPSQSPPRDPPGFPMAPPNFFLPSPSPPAFLPFAGVLRGPGRPVPPSPAPGGS
B2: RelB (1-400) fused to a BiFC fragment (domain or fragment, UniProt Q04863 1-400, looked up)
chain: MPSRRAARESAPELGALGSSDLSSLSLTVSRTTDELEIIDEYIKENGFGLDGTQLSEMPRLVPRGPASLSSVTLGPAAPPPPATPSWSCTLGRLVSPGPCPRPYLVITEQPKQRGMRFRYECEGRSAGSILGESSTEASKTLPAIELRDCGGLREVEVTACLVWKDWPHRVHPHSLVGKDCTDGVCRVRLRPHVSPRHSFNNLGIQCVRKKEIEAAIERKIQLGIDPYNAGSLKNHQEVDMNVVRICFQASYRDQQGHLHRMDPILSEPVYDKKSTNTSELRICRINKESGPCTGGEELYLLCDKVQKEDISVVFSTASWEGRADFSQADVHRQIAIVFKTPPYEDLEISEPVTVNVFLQRLTDGVCSEPLPFTYLPRDHDSYGVDKKRKRGLPDVLGEL
notes: RelB, rel homology region, residues 1-400; Three constructs that differ only in the fluorescent-protein fragment are written as one molecule; The methods give limits for RelB-CN only; also called RelB-CN; RelB-VN; not shown: BiFC fragment behind a (GGGGS)2 linker (Cerulean 1-172 in RelB-CN; N-terminal fragment of Venus in RelB-VN; C-terminal fragment of Cerulean in RelB-CC; one for each …)

Experiments:
[1] = molecular target: T1, Recombinant non-tagged human p52 (1-398); assay: BLI; p52:p52 homodimer; duplicate experiment
[2] = molecular target: T1, Recombinant non-tagged human p52 (1-398); assay: BLI; p52:p52 homodimer
[3] = molecular target: T2, Recombinant non-tagged human p50 (1-435); assay: BLI; p50:p50 homodimer; duplicate experiment
[4] = molecular target: T2, Recombinant non-tagged human p50 (1-435); assay: BLI; p50:p50 homodimer
[5] = molecular target: T2, Recombinant non-tagged human p50 (1-435); assay: BLI; p50:p50 homodimer
[6] = molecular target: T1, Recombinant non-tagged human p52 (1-398); assay: BLI; p52:p52 homodimer
[7] = molecular target: T2, Recombinant non-tagged human p50 (1-435); assay: BLI; p50:p50 homodimer; duplicate experiment
[8] = molecular target: T1, Recombinant non-tagged human p52 (1-398); assay: BLI; p52:p52 homodimer; duplicate experiment
[9] = molecular target: T3, p52 (1-341) fused to a BiFC fragment; assay: split reporter (BiFC, NanoBiT); multicolor BiFC: three BiFC constructs (VN, CC, CN) co-expressed in HEK 293T cells so that two dimers compete, with or without co-expressed Bcl3 or RelB; cells fixed with methanol 48 h after transfection; Venus and Cerulean intensity as percent of the two-construct reference; conditions: partners not purified

Binder | koff [1] | koff [2] | Kd [3] | Kd [4] | koff [5] | Kd [6] | koff [7] | Kd [8] | fold more stable than the p52:p52 homodimer (BiFC fluorescence, without Bcl3) [9]
B1 | 0.000323 s⁻¹ | 0.000393 s⁻¹ | 6.56 nM | 6.87 nM | 0.000354 s⁻¹ | 3.12 nM | 0.00033 s⁻¹ | 2.4 nM | –
B2 | – | – | – | – | – | – | – | – | ~20 fold
